Laboratory results: the supplement of paper PMC12636428

System: Saccharomyces cerevisiae
Assay: transcriptional activation domain activity (GFP:mCherry ratio, weighted mean of sorted bins, harmonized to initial dataset scale) (arbitrary fluorescence ratio units); higher = stronger transcriptional activation
Conditions: beta-estradiol 1 µM; induction time 4 h
Summary of the method: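 For this assay, yeast diploids with a GFP reporter carried barcoded protein tiles at URA3, each fused to an estradiol-inducible synthetic transcription factor. Induction was a 1:5 dilution into SC with 1 uM beta-estradiol for 4 hours at 30 °C, followed by sorting into 8 bins by GFP:mCherry ratio and barcode sequencing. Tiles under 50 reads were dropped, and activation activity was calculated as the read-weighted mean of bin median fluorescence, averaged across barcodes and linearly mapped onto the initial dataset scale.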

MALLSQVARLLGSFLCVAISCFGRLALLFLWLILAYFTFWSFFSGNLPICFCL
transcriptional activation domain activity: 59300

LMILMIINFIILNIPVAVILLIYFVFKIGFYVFIWKRIRFISILLRATVSHLR
transcriptional activation domain activity: 62900

YGALGDNTVTLRRPDDSDIVVLFDDMVVHAWIKMLIVAKLICCVILRRTAALG
transcriptional activation domain activity: 46500

QNESERLGPPKKKRRRQALSCTECKRRKIKCDRTHPCGPCARRSEPEKCQWHV
transcriptional activation domain activity: 27600

MITTLYHHVRYILIRQPRRPVSLLDQPAVLNYLYVLLYHTIVTFNILTPAVYW
transcriptional activation domain activity: 49600

EEESQAKKTTAAASSTKDLDPKGGTSGKEKKENEGTLTKRGKSGRRKVRKSVL
transcriptional activation domain activity: 17800

VGLKWGMGRDKSFSFTSKLNNPQFLGSLDLEILEELEKLISAQEFSRNFTEDV
transcriptional activation domain activity: 70100

LFTHLCLNPQLLRSISSVIFLPRITAPIHVYLYSILIYLQFKMLLLYTLFHIM
transcriptional activation domain activity: 77200

CLYVHQQLRESLGLGWLRQDTFFNYTRDRICVWNLNRKYSAFSTITSTVTHVR
transcriptional activation domain activity: 39700

MITQILYLDLLHPLHCHFFFFFSFFSSLIVVSVIITRLYFFFFSHLVIFCPFL
transcriptional activation domain activity: 54600

MYWNYPGFIWPLGFPWFFFFFFFRSGSLLPRPCPVDTVFHFQFFFFFFFFFFF
transcriptional activation domain activity: 51300

SSRSRSVSRQPPSPHEEEQEDAEEREAEDGKGGGGEGEREHQSRESSPAPART
transcriptional activation domain activity: 27100

FSMRFVVLIDLFATFLQPASIIYVLYLIYVAAFDKATAFPMISLIMLACIYGL
transcriptional activation domain activity: 17000

CDNIYLQQDQCGYVLEHCMDATPGLFNYIQLYYCSSFRPLVFIFMCGWLLFLF
transcriptional activation domain activity: 54900

KAGKKKYVESVNGRRREVLVIVGKDGKTKRKTRWLDPESAATETGVPWGLEVP
transcriptional activation domain activity: 28800

SADDSAGEARQREKSEESGTRRSRKSHDRESKEGAEGADEAESWERSSKKKSR
transcriptional activation domain activity: 29600

MLTHLHFVEQPLTPPFFSVSITSFLLRSFAFPPCVLPSVAFFLCLFCFLPLLV
transcriptional activation domain activity: 56500

RLHTLRMPISWPLLGLARRRLASLRTFAVWIKPRHSSLTAAERLAFTQFLAAH
transcriptional activation domain activity: 79000

QYYPGQLLSVKLDLFNTMLARVLDLSHMEILHFIVGPRVNIVGRGYPLRMGVV
transcriptional activation domain activity: 34100

GHKGRHLAEAAGLALGAKKLMKHRSHSRPGRSPSPEGHHRARHLAEAGIAAAG
transcriptional activation domain activity: 43900

AIFMSDGSQALCRLIYLIGIATRFFGLSMMLCIVVDVLNLVTFYLNVFYLIQW
transcriptional activation domain activity: 47500

EGSERESKGSEREGEGSEREGKRNEREGKRGERGGERVGERGSEKVGERGSEK
transcriptional activation domain activity: 22700

KIHIVNMAQVIVLCIHRFLYGIIPLFEISTCIYFPLLVSLWHITYILFYIVMF
transcriptional activation domain activity: 55200

MGPPFFDGFSDGSSDLGSLFLPNGDSANWDLSWSAETFWQLENEYTSLPSFFD
transcriptional activation domain activity: 144000

SLWCLVIFPCSLVFLGLVGPVLSWFFLSFLFSWLIGRLVLYLILFLLFVTDWA
transcriptional activation domain activity: 22000

KSDVEADRQRLIYSGKVLKDDDILSSCKIQSGHTVHMVKGAARAAAASSSSAP
transcriptional activation domain activity: 58300

LACIVVCVIVYVVLTLLPLFYRDCPYLTPMSGPLWRFLQAFQFVSIVSFRRIY
transcriptional activation domain activity: 41900

DADGNPTGDGEPPKKRRRRQALSCTECKRRKIKCDRNHPCSPCARRGDGQKCQ
transcriptional activation domain activity: 13000

DEPFKCTQSRCSIILPRDLMAVHFSYRRRTLKLIRSCPITKCSFRIRLFRPQS
transcriptional activation domain activity: 69700

AAATATGAAPPGAPGEGPPKVKRGRKPKPKNLPPSDPNASTTATPGTSAPGSQ
transcriptional activation domain activity: 32500

EAEEGGAGKRKAGSPEDTEQQQESSEKSTESNHKPATKRSTVSERPSKGKRRS
transcriptional activation domain activity: 11500

LNYRKDIDAWHKSLMGTLARGPTLWTFWILSCLDKECFWNWQCYLGYMWPGLF
transcriptional activation domain activity: 72100

MYILILIFFLSFFLSFLNGSILYLGIVLLPCAYRRVYTVVCLVFTIQIVLRIK
transcriptional activation domain activity: 61400

SFCVRHKFMWPLFRTRFIPCPVVSLIVLPTLFIVAYLPQVAFLAIFQGNLAWF
transcriptional activation domain activity: 58000

NLSPLVLPLWVQLNIYFGIVFLWILAPLVFYYNVWNAQSFPFLSNSIFQLLPN
transcriptional activation domain activity: 64600

SDDETSRSHKKSSRRDTSQDDAERGRHHHKSSRHKGERDRHHKIRSRSRSPAR
transcriptional activation domain activity: 13900

SSEEEDEEDEEEEEEEEEEEAPPKKRAKTKGTVLYCYIFSPFFVPATVNPAID
transcriptional activation domain activity: 56700

EHQCATIQLDFQLPQQFNLEYMTSEKAPAAKIEAAPKTETAPKAEAPAAAPAA
transcriptional activation domain activity: 42500

HQLYTDWLYLWWIAYTNKMHGRIYIILKESLKNLPIFGWGAQFYNFIFLCRNW
transcriptional activation domain activity: 56400

TVPVLVLVIYDWPRDRSNAYQVVLAISIWCWGVYQLLYIFLCGLYNPNFSTFR
transcriptional activation domain activity: 59700

LWPLPVITRYIIGISLLVSMLNFMGLLHLKCSSPSYVIHRLEIANLLMSPFLF
transcriptional activation domain activity: 46200

MCLTGLWWFVCKFAFSFFLSAGLFFLIHPPLFLILLPLSSFFLFLSLAAASGF
transcriptional activation domain activity: 31400

MFIFFLILLFYYYFYSTILFITYTLFSITQLSIFTLIPFLYYIIHYVTLLICS
transcriptional activation domain activity: 41100

MLRFYVLISFFFFLCNHLLFLICFIYIREFLSHLSGALVLCFGCMVWFLNFPS
transcriptional activation domain activity: 62000

MLFLPSYSFSVFLFLFLLFALTVQVCLFLFTTWLVSCFDMYVFVWVGVCLCAR
transcriptional activation domain activity: 47700

NWYWLATTMYFLYGETVIYYFKHIVLVDKVLLPLATHHRFISFILYVFGFVFF
transcriptional activation domain activity: 58300

MDGGLFCVSISLVHFLLLLFPSHPLILRLIFLLFTFHFPVRLYFNFVLLQLLT
transcriptional activation domain activity: 67900

MSAFSGEDAPSPEGLDRKRKRQRTALSCTECKRRKIKCDRSQPCSSCIRRKVP
transcriptional activation domain activity: 42300

KRGEGEAGKESGRQRRSGSAGERAGRRGEGSKEGAEGESEASREKGNKRNDEE
transcriptional activation domain activity: 32800

STPSAFGAQPTQTTGAFGQPAQTSAFGAQPATGGFGNTGSAFGQARPSAFGST
transcriptional activation domain activity: 16900

MDCLLNPVVPCLVCFLPFVCKIAVSLHLPLWSICCVCVSIRIALVCTLIAFII
transcriptional activation domain activity: 50400

GAVINLSLSLGRRTQVEEAIKLVRYKAHYVSGSIDHGLHRLLVWAYTLLTVRI
transcriptional activation domain activity: 57100

LAYLVMQGFFRTFGLMCFNFDSAFRLAVFFIPNFVEYTGYILPVISMQRWLFW
transcriptional activation domain activity: 63100

MPLPPLSLSLLVLHSRHSQHSFSLHTYTLTFLFYFPYLLIDLDYLAFFFIFFP
transcriptional activation domain activity: 41400

PEPVAAPAPANDGFSEVQHNRGGRGRGGQYQGEGRGGYRGRGRGGPRGGGEFR
transcriptional activation domain activity: 24500

MPGHALVDIQNTFGCTFIGLVISILYLILNFGNVENLEYNMWAMNLQVDITGL
transcriptional activation domain activity: 56500

VHEQLEVALRRWRISSIMEGTRVRDVLIRLPLAHSFASLSSKVNILLHEMLFE
transcriptional activation domain activity: 45700

SLLQSLPFPLQFLTLCFNSHLLIVIVVIIGCILESIYVGTFLWMLLRVCRWQG
transcriptional activation domain activity: 66500

DVDVDVGVDGRGRGFEAGDGREDGKGEEEGGRRLKRAGTDGEAVGGARAREVW
transcriptional activation domain activity: 32500

ELILVQDLCGTFCCSMQFLVLMDLLGNVVLPSSVIFFYYLIFAYFFGYPVAMP
transcriptional activation domain activity: 60100

VSLLTVIVPIGITCRMVIWICALGMVISSLCVDTILLNKAYKFSFIYIVVRHT
transcriptional activation domain activity: 55300

MWWALCFFFFLFIFVILGFVGLLVCWFVGWLAGTFVGFSGSWFSFWVAWVVWV
transcriptional activation domain activity: 60500

KNNNREVEVEAREPHHKGRKNNKREVGEVEARDPHHKGRKNNKREVEVEAREP
transcriptional activation domain activity: 52900

PELGRIVRWKWFEWTAKALFIQLYSWSLQAFLFSVGWFNRFLVRKDIVLQIIM
transcriptional activation domain activity: 51900

QVTALVRLIVRLNCELDLNLRGFVAALCIHWIKQSAGSASLKVLLYHAVFLAD
transcriptional activation domain activity: 44900

DREKRSSGHRNGRRHRGHRSGRKQRRSRSRSRGDRPDSPVRAKEGEGGAKDRK
transcriptional activation domain activity: < 6570

YGVHLLARFAWWFPSMSAIIAKLEGTINKLHILSHKELCQIIHNLNWLLYVGL
transcriptional activation domain activity: 71400

SPLNSFDRSFYPIGCTNLSNDIPGYSFLNDAMSEIHTFGDFNGELDSTFLEFS
transcriptional activation domain activity: 131000

DLIQTKQLQNALLTHPRRNTLTGLQFTMQNVLDLLKYILTMILYRPSQFRWAA
transcriptional activation domain activity: 82500

SKHEDQKSRRSRDEKDRGSRSSRHREDGHRSHRDRSRSRDRHHRSSKHHERRR
transcriptional activation domain activity: 27700

LYLSVLYIIVFTFLPGYTFIFTLTYGYGFAARGLSFLALGVGFLSSLILVIPV
transcriptional activation domain activity: 46500

FLQNSSDSVDIRLALLLTPLENTKGVSHVDQLNKPTHTVVVGIVHLCNPKSRA
transcriptional activation domain activity: 51600

DSSSSNDSDSGADDGAARPVRRSRARRKHKHNHEHDGNGGEGDAKDKARKPSP
transcriptional activation domain activity: 28400

SDASAGAEAGTDGSAAPPKKKPRQKRAAPLPGEEGYDAAASKPKRAPRKRKAS
transcriptional activation domain activity: 25300

FALFPEDPIILTIFGFFFSIPCFYYIVAKPQYISASRFVLLTYNLTCLYCYNL
transcriptional activation domain activity: 32600

MSLICIYQTIGTFAQICSWYFEMVHAGLSGSDIAQLARSNVNRIWWYKLLFTT
transcriptional activation domain activity: 44500

MADAITESTAKLQLDEETGEMVSKGELKKRLAKRAKKAAQAKAKAEAPAPLAT
transcriptional activation domain activity: 36300

ERVGERRGSGKTERQRAHDAPEREGARGEKGRRARGTNGEGRGGEEREVRQEG
transcriptional activation domain activity: 25600

TDAAADAPKEDEVKEGEEKMETESTEEKKESESAEEKPAEETAASADTEMAEA
transcriptional activation domain activity: 25600

RCFSFLFLGCHYDTDWGFGFCCLFVINCRFNFCIFFLSLFSSFFVLVSFFLLY
transcriptional activation domain activity: 58800

EKAGEEEKAGEEEKAAEEEKSAEEEKAAKEEEMKAMEKSKAEKEASSEEPKAE
transcriptional activation domain activity: 35700

YAASSASPAPPRKYPPARKASPSPSPTPPRTRKSSASALRRPASTPTPPAPSP
transcriptional activation domain activity: 23200

FCFFLFLLSFSSCYFFFLLLFLPLTFSSLLFLPIYFFSSSSSSFFLPFLFVSL
transcriptional activation domain activity: 43000
